Measured values taken from paper PMC10823254 (Proceedings of the National Academy of Sciences of the …, 2024).

Target: T1, PilO-C (H. pylori)
T1 chain: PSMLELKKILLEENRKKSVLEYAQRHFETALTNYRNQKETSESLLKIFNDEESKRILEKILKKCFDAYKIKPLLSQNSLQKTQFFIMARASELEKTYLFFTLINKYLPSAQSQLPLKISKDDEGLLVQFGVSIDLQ
Assay: SPR

B1: PilN-C (domain or fragment)
chain: HNAIKSTQDNASSLTIQERLYRHEISRLQVKTDETLKLIKEAKKRLNYNDDIRDVLQGLLNIVPDSITINSIEIDQQSVVVSGKTPSKEAFYFLFQNKLNPMFDYSRAEFFPLSDGWFNFVSTNFSNSLLIKNPESIK
  Kd: 3.1 ± 1 µM
